Consider 3 substances from publication PMC6566870.

Read-outs that look alike come from different tables or passages of the source.

In test [1] the target is N-terminally His6-tagged cMyc-tagged human CCR1 (human) (UniProt P32246).
The target is the same in test [2]. This is another data set of the same source.
The target is the same in test [3]. The experiment in a line: radioligand binding; competitive displacement of 50 pM 125I-CCL3 from membranes of Flp-In T-REx 293 cells expressing CCR1; 2 h at 37 °C; two sets of experiments (Table 1, Table 3).
The target is the same in test [4]. The source holds these as a separate data set.
Test [5] shares this target. This is another data set of the same source.
Test [6] shares this target. Nature of the test: radioligand binding; competitive displacement of 50 pM 125I-CCL3 from membranes of Flp-In T-REx 293 cells expressing CCR1; 2 h at 37 °C; two sets of experiments (Table 1, Table 3). This is another data set of the same source.

Chain of N-terminally His6-tagged cMyc-tagged human CCR1 (human) (P32246 whole entry): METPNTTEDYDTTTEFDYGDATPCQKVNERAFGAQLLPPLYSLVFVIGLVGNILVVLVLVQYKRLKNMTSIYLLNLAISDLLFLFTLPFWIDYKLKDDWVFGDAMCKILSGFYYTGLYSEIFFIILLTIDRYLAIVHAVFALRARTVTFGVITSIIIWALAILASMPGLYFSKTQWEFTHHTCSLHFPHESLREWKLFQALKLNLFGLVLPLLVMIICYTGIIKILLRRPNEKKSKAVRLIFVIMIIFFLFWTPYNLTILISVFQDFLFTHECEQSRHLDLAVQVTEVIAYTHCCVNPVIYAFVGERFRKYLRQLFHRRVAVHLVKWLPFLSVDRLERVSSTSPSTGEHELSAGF

The term IC50 denotes the point on the concentration scale where inhibition reaches its midpoint. The term pIC50 denotes the IC50 on a negative log10 scale, so that one unit is a factor of ten. A higher pIC50 goes with a low IC50. Take CCL15(N-CCL7) (ligand): in test [1], the ERK1/2 phosphorylation, EC50 came to 1.3 nM; the ERK1/2 phosphorylation, Emax was determined as 28.2%; the ERK1/2 phosphorylation, pEC50 was 8.9 -log M; the Gαi1 activation (BRET), EC50 was 0.7 nM. Besides, in test [1], the Gαi1 activation (BRET), Emax came to 91.2%; the Gαi1 activation (BRET), pEC50 is 9.2 -log M; the Gαi2 activation (BRET), EC50 worked out at 1.5 nM; the Gαi2 activation (BRET), Emax amounted to 124%. Also, in test [1], the Gαi2 activation (BRET), pEC50 was 8.8 -log M; the inhibition of forskolin-induced cAMP production, EC50 was determined as 0.2 nM; the inhibition of forskolin-induced cAMP production, Emax stood at 35.5%; the inhibition of forskolin-induced cAMP production, pEC50 was 9.7 -log M. In test [2], the transduction coefficient Log(τ/KA), GPA αi1 was 9; the transduction coefficient Log(τ/KA), GPA αi2 stood at 8.5; the transduction coefficient Log(τ/KA), cAMP amounted to 9.1; the transduction coefficient Log(τ/KA), pERK is 8.8. In test [3], the IC50 turned out to be 0.54 nM and the pIC50 was 9.3 -log M.

Turning to CCL15(Δ26) (ligand), in test [4], the ERK1/2 phosphorylation, EC50 was determined as 2.3 nM; the ERK1/2 phosphorylation, Emax came to 25.4%; the ERK1/2 phosphorylation, pEC50 was 8.6 -log M; the G protein activation (Gαi1, BRET), EC50 worked out at 1 nM. Also, in test [4], the G protein activation (Gαi1, BRET), Emax stood at 111%; the G protein activation (Gαi1, BRET), pEC50 is 9 -log M; the inhibition of forskolin-induced cAMP production, EC50 was 2.8 nM; the inhibition of forskolin-induced cAMP production, Emax turned out to be 28.7%. Moreover, in test [4], the inhibition of forskolin-induced cAMP production, pEC50 was 8.6 -log M. Besides, in test [1], the Gαi2 activation (BRET), EC50 came out at 1.2 nM; the Gαi2 activation (BRET), Emax is 114%; the Gαi2 activation (BRET), pEC50 was 8.9 -log M; the inhibition of forskolin-induced cAMP production, EC50 (Table 3) turned out to be 2.7 nM. In addition, in test [5], the transduction coefficient Log(τ/KA), GPA αi1 amounted to 8.6; the transduction coefficient Log(τ/KA), cAMP amounted to 8.1; the transduction coefficient Log(τ/KA), pERK stood at 8.4. Moreover, in test [2], the transduction coefficient Log(τ/KA), GPA αi1 (second set of experiments) was 8.7; the transduction coefficient Log(τ/KA), GPA αi2 amounted to 8.3; the transduction coefficient Log(τ/KA), cAMP (second set of experiments) came to 8.4; the transduction coefficient Log(τ/KA), pERK (second set of experiments) is 8.7. Also, in test [6], the IC50 was found to be 0.093 nM and the pIC50 is 10.1 -log M. In addition, in test [3], the IC50 stood at 0.028 nM and the pIC50 is 10.6 -log M.

For the substance CCL15(Δ28) (ligand), in test [1], the ERK1/2 phosphorylation, EC50 is 2.1 nM; the ERK1/2 phosphorylation, Emax came to 28.3%; the ERK1/2 phosphorylation, pEC50 was 8.7 -log M; the Gαi1 activation (BRET), EC50 was 2.3 nM. Moreover, in test [1], the Gαi1 activation (BRET), Emax stood at 86.2%; the Gαi1 activation (BRET), pEC50 is 8.6 -log M; the Gαi2 activation (BRET), EC50 stood at 1.3 nM; the Gαi2 activation (BRET), Emax is 140%. Further, in test [1], the Gαi2 activation (BRET), pEC50 was 8.9 -log M; the inhibition of forskolin-induced cAMP production, EC50 amounted to 0.4 nM; the inhibition of forskolin-induced cAMP production, Emax was found to be 35.7%; the inhibition of forskolin-induced cAMP production, pEC50 is 9.4 -log M. In test [2], this substance had a transduction coefficient Log(τ/KA), GPA αi1 of 8.4; a transduction coefficient Log(τ/KA), GPA αi2 of 8.6; a transduction coefficient Log(τ/KA), cAMP of 8.9; a transduction coefficient Log(τ/KA), pERK of 8.6. In test [3], the IC50 was 0.074 nM and the negative logarithm of the IC50 (pIC50) is 10.1 -log M.
